B1: MnC4t1p1_A10 (antibody, V domains shown)
VH: QLQVQESGPGLVKPSETLSLTCTVSGASISSNHYFWGWIRQPPGKGLAWIGSMHYSGSTYYNPSLKSRVTISVDTSKNQLSLKLSSVTAADTAVYYCARGVNYYDRNGYYRNDGFDIRGQGTMVTVSS
VL: DIQMTQSPSSLSASVGDRVTITCRASQGIRNDLGWYEQKPGKAPKRLIYAASSLESGVPSRFSGSGSGTEFTLTISSLQPEDFATYYCLQHNTYPFTFGPGTRVDIK
B2: MnC4t2p1_F5 (antibody, V domains shown)
VH: QLQVQESGPGLVKPSETLSLTCTVSGASISSNHYFWGWIRQPPGKGLAWIGSMHYSGSTYYNPSLKSRVTISVDTSKNQLSLKLSSVTAADTAVYYCARGVNYYDRNGYYRNDGFDIRGQGTMVTVSS
VL: DIQMTQSPSSLSASVGDRVTITCRASQGIRNDLGWYEQKPGKAPKRLIYAASSLESGVPSRFSGSGSGTEFTLTISSLQPEDFATYYCLQHNTYPFTFGPGTRVDIK
B3: MnC4t2p1_D10 (antibody, V domains shown)
VH: QLQVQESGPGLVKPSETLSLTCTVSGASISSNHYFWGWIRQPPGKGLAWIGSMHYSGSTYYNPSLKSRVTISVDTSKNQLSLKLSSVTAADTAVYYCARGVNYYDRNGYYRNDGFDIRGQGTMVTVSS
VL: DIQMTQSPSSLSASVGDRVTITCRASQGIRNDLGWYEQKPGKAPKRLIYAASSLESGVPSRFSGSGSGTEFTLTISSLQPEDFATYYCLQHNTYPFTFGPGTRVDIK

biological target: SARS-CoV-2 (spike protein) antigen of the Euroimmun IgG detection kit; experiment: Euroimmun IgG ELISA kit, antibody at 50 µg/ml [cont'd]

Binder | IgG detection test
B1 | 4.87
B2 | 5.19
B3 | 5.3
